Experimental data: IntAct's records for PubMed 28490631

B1: Triggering receptor expressed on myeloid cells 2 (Homo sapiens), Q9NZC2 (parent)
chain: MEPLRLLILLFVTELSGAHNTTVFQGVAGQSLQVSCPYDSMKHWGRRKAWCRQLGEKGPCQRVVSTHNLWLLSFLRRWNGSTAITDDTLGGTLTITLRNLQPHDAGLYQCQSLHGSEADTLRKVLVEVLADPLDHRDAGDLWFPGESESFEDAHVEHSISRSLLEGEIPFPPTSILLLLACIFLIKILAASALWAAAWHGQKPGTHPPSELDCGHDPGYQLQTLPGLRDT

Variants of: B1
Conditions: with tyobp_human TYROBP

Variant	effect of a mutation on the interaction
MEPLRLLILLFVTELSGAHNTTVFQGVAGQSLQVSCPYDSMKHWGRRKAWCRQLGEKGPCQRVVSTHNLWLLSFLRRWNGSTAITDDTLGGTLTITLRNLQPHDAGLYQCQSLHGCEADTLRKVLVEVLADPLDHRDAGDLWFPGESESFEDAHVEHSISRSLLEGEIPFPPTSILLLLACIFLIKILAASALWAAAWHGQKPGTHPPSELDCGHDPGYQLQTLPGLRDT [S116C]	with no effect
MEPLRLLILLFVTELSGAHNTTVFQGVAGQSLQVSCPYDSMKHWGRRKAWCRQLGEKGPCQRVVSMHNLWLLSFLRRWNGSTAITDDTLGGTLTITLRNLQPHDAGLYQCQSLHGSEADTLRKVLVEVLADPLDHRDAGDLWFPGESESFEDAHVEHSISRSLLEGEIPFPPTSILLLLACIFLIKILAASALWAAAWHGQKPGTHPPSELDCGHDPGYQLQTLPGLRDT [T66M]	with no effect

Variants of: B1
Conditions: with tyobp_human TYROBP
Remark: another data set of the same source

Variant	effect of a mutation on the interaction
MEPLRLLILLFVTELSGAHNTTVFQGVAGQSLQVSCPYDSMKHWGRRKAWCRQLGEKGPCQRVVSMHNLWLLSFLRRWNGSTAITDDTLGGTLTITLRNLQPHDAGLYQCQSLHGSEADTLRKVLVEVLADPLDHRDAGDLWFPGESESFEDAHVEHSISRSLLEGEIPFPPTSILLLLACIFLIKILAASALWAAAWHGQKPGTHPPSELDCGHDPGYQLQTLPGLRDT [T66M]	increasing interaction strength
MEPLRLLILLFVTELSGAHNTTVFQGVAGQSLQVSCPYDSMKHWGRHKAWCRQLGEKGPCQRVVSTHNLWLLSFLRRWNGSTAITDDTLGGTLTITLRNLQPHDAGLYQCQSLHGSEADTLRKVLVEVLADPLDHRDAGDLWFPGESESFEDAHVEHSISRSLLEGEIPFPPTSILLLLACIFLIKILAASALWAAAWHGQKPGTHPPSELDCGHDPGYQLQTLPGLRDT [R47H]	with no effect
